Measurements published in patent US20080113907A1, “Uses Of Galectin-2” (Charite-Universitat-Smedizin Berlin, priority 2004, published 2008).

What was measured:
CD3, CD7, β1 integrin = test: Magnetic separation / co-immunoprecipitation of galectin containing complexes; type: binding, human; details: galectin coated beads, immunoblot for CD3, CD7, β1
Description: For immunoblotting cells were washed in PBS, and lysed in cell lysis buffer (1% Triton-X, 0.5% NP-40, 0.1% SDS, 0.5% sodium deoxycholate, 5 mM EDTA, 50 mM and 50 mM protease- and phosphatase-inhibitor cocktail 2, 1 mM PMSF, 100 μg/ml trypsin-chymotrypsin inhibitor, 100 μg/ml chymostatin in PBS). The concentration of proteins in each lysate was measured using the Bio-Rad protein assay (Bio-Rad Laboratories, Hercules, Calif.). Equivalent amounts of protein (10 μg) were fractionated on a 10-20% Tris-glycine gel and electrotransferred to a nitrocellulose membrane (Novex, San Diego, Calif.). Membranes were blocked with 5% milk in 0.1% Tween 20-PBS (Fisher Scientific, Hanover Park, Ill.), followed by incubation for 60 m in at room temperature with the indicated primary antibody. The membranes were washed six times with 0.1% Tween 20-PBS and then incubated for 1 h with the appropriate horseradish peroxidase-conjugated secondary antibody (Santa Cruz Biotechnology), washed, and incubated with the chemiluminescent substrate (Perkin-Elmer, Carlsbad, Calif.) for 5 minutes. The membranes were then exposed to film (Amersham, Arlington Heights, Ill.). […]

chronic DSS colitis = test: Therapy of chronic DSS colitis, disease activity index (DAI); type: in vivo, Balb/c mice; details: control 5.3 ± 0.7
Excerpt: Colitis was induced in 30 8- to 10-week-old, female, Balb/c mice (Jackson Laboratories, Bar Harbor, Me.) by adding 5% DSS (Sigma Chemical Co., St. Louis, Mo.) (Dextran Sodiumsulfate (DSS) to their drinking water for the period of seven days and allowing them to drink ad libitum. At the 8th day DSS administration was stopped for another seven days. This scheme of DSS administration for seven days followed by a period of seven days pure water administration was repeated as shown in FIG. 15B. At the 29th day 20 mice were treated with Galectin-2 intraperitoneally (i.p.) parallel to DSS administration. In one trial of this treatment a group of 10 mice were treated with 2 mg/kg Galectin-2 once a day and in another trial the same total dose was distributed in two administrations for a group of ten mice, e.g. 10 mice were treated with respectively 1 mg/kg Galectin-2 twice a day. Parallel a group of 10 mice was treated with 0,9% NaCl instead of Galectin-2 as control. At the 8th day the Galectin-2 treatment was stopped. Parallel to the treatment mice were weighed and inspected for diarrhea and rectal bleeding. After stopping the treatment mice were killed, their entire colon was resected, and its length was measured and weighed. The disease activity index (DAI; i.e., the combined score of weight loss and bleeding) was determined according to a standard scoring system […]

[1] = system: dextran sodium sulfate induced colitis; test: Prevention of DSS induced acute colitis, disease activity index (DAI); type: in vivo, Balb/c mice
Description: Colitis was induced in 8- to 10-week-old, female, Balb/c mice (Jackson Laboratories, Bar Harbor, Me.) by adding 5% DSS (Sigma Chemical Co., St. Louis, Mo.) (Dextran Sodiumsulfate (DSS) to their drinking water and allowing them to drink ad libitum. Groups of mice were treated either with 1 mg/kg BW (body weight) galectin-2 intraperitoneally or PBS 2 h before DSS administration. Mice were weighed and inspected for diarrhea and rectal bleeding. Seven days after induction of colitis by DSS, mice were killed, their entire colon was resected, and its length was measured and weighed. The disease activity index (DAI; i.e., the combined score of weight loss and bleeding) was determined according to a standard scoring system.
The disease activity index: Loss in bodyweight: 0=no loss; 1=5% to 10%; 2=10% to 15%; 3=15% to 20%; 4 ? 20%.
Hemoccult: 0=no blood; 2=positive; 4=gross blood.
In this experiment the DAI ranges from 0 to 8. The higher the DAI score the more severely the animal had been affected by colitis.
Colitis was induced in 8- to 10-week-old, female, Balb/c mice (Jackson Laboratories, Bar Harbor, Me.) by adding 5% DSS (Sigma Chemical Co., St. Louis, Mo.) (Dextran Sodiumsulfate (DSS) to their drinking water and allowing them to drink ad libitum. Groups of respectively 10 mice were treated either with Galectin-2 subcutaneously (s.c.) or intraperitoneally (i.p.) 2 h before DSS administration. In one trial with 10 mice the doses of Galectin-2 was doubled (administered i.p.) and compared to the treatment of 10 mice with Tacrolimus (FK506) (administered i.p.) in equal concentrations. In parallel a group of 10 mice was treated with 0.9% NaCl instead of Galectin-2 as control. Mice were weighed and inspected for diarrhea and rectal bleeding. 10 days after induction of colitis by DSS, mice were killed, their entire colon was resected, and its length was measured and weighed. The disease activity index (DAI; i.e., the combined score of weight loss and bleeding) was determined according to a standard scoring system.
The disease activity index: Loss in body weight: 0=no loss; 1=5% to 10%; 2=10% to 15%; 3=15% to 20%; 4 ? 20%.

T cells = test: Binding of biotinylated Gal-2 to T lymphocytes (flow cytometry); set-up: species or system human
Description: To measure Gal-2 binding to T lymphocytes, aliquots of cell suspensions were kept as controls or stimulated for 1, 6, 12, 24, 48, and 72 h with anti-CD3 mAb or PMA and PHA and incubated in the presence of 5 μg/ml biotin-labeled Gal-2. Cells were then harvested, washed and stained with anti-CD3-FITC mAb and APC-labeled streptavidin (Biosource) followed by flow cytofluorometric analysis. Cells cultured in the absence of biotin-labeled Gal-2 and stained with FITC-labeled mouse IgG (BD Pharmingen) or APC-labeled streptavidin served as isotype controls. Each analysis was performed on at least 20,000 events.

B1: galectin-2: β-galactoside binding lectin, non-covalent dimer with subunits of about 14 kDa; recombinant human or rat (SEQ ID NO:1, 2) (protein)
chain: MAGELEVKNMDMKPGSTLKITGSIADGTDGFVINLGQGTDKLNLHFNPRFSESTIVCNSLDGSNWGQEQREDHLCFSPGSEVKFTVTFESDKFKVKLPDGHELTFPNRLGHSHLSYLSVRGGFNMSSFKLKE
glycoproteins co-immunoprecipitated (CD3, CD7, β1 integrin): coimmunoprecipitate only with integrin β1
DAI (disease activity index) (chronic DSS colitis; 1 × 2 mg/kg i.p. once a day): 4.5 ± 0.6,
DAI (disease activity index) (chronic DSS colitis; 2 × 1 mg/kg i.p. twice a day): 2.8 ± 0.3,
DAI (disease activity index) ([1]; 1 mg/kg BW i.p. 2 h before DSS, seven days after induction, mean ± SD, DAI 0 to 8, control 6.3 ± 2.30): 4.5 ± 2.1,
DAI (disease activity index) ([1]; 1 mg/kg i.p., 10 days after induction, control 6.5 ± 0.3): 5.0 ± 0.7,
DAI (disease activity index) ([1]; 1 mg/kg s.c., 10 days after induction, control 6.5 ± 0.3): 5.8 ± 0.7,
DAI (disease activity index) ([1]; 2 mg/kg i.p., 10 days after induction, control 6.5 ± 0.3): 2.6 ± 0.6,
time bound to T cells (T cells): more than 72 hours
binding to T cells after stimulation (T cells; PMA/PHA or anti-CD3 antibody): increase in cell staining
binding to T cells (T cells; unstimulated T cells): bound to unstimulated T cells in a β-galactoside-specific manner
